Data reported in PMC3713453 (Science signaling, 2013).

Legend:
Experiment in all cases: ITC
[1] = target: Gal8_(C-CRD) H328A (human, UniProt O00214-2 228-359, H328A)
[2] = target: Gal8_(C-CRD) V244A (human, UniProt O00214-2 228-359, V244A)
[3] = target: Gal8_(C-CRD) I312L (human, UniProt O00214-2 228-359, I312L)
[4] = target: Gal8_(C-CRD) I312V (human, UniProt O00214-2 228-359, I312V)
[5] = target: Gal8_(C-CRD) K246A (human, UniProt O00214-2 228-359, K246A)
Sequence of Gal8_(C-CRD) K246A (O00214 186-317 K204A): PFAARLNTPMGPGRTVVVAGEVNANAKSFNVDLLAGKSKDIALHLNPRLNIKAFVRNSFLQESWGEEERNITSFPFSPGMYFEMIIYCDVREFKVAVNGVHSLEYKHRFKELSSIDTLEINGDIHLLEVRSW

Sequence of Gal8_(C-CRD) I312L (O00214 186-317 I270L): as the sequence (O00214 186-317 K204A) above, with A19K, I85L counted along it
Sequence of Gal8_(C-CRD) I312V (O00214 186-317 I270V): as the sequence (O00214 186-317 K204A) above, with A19K, I85V counted along it
Sequence of Gal8_(C-CRD) V244A (O00214 186-317 V202A): as the sequence (O00214 186-317 K204A) above, with V17A, A19K counted along it
Sequence of Gal8_(C-CRD) H328A (O00214 186-317 H286A): as the sequence (O00214 186-317 K204A) above, with A19K, H101A counted along it

fold reduction of affinity against wild-type Gal8_(C-CRD) [1]: 8 fold
binding result [2]: binds
binding result [3]: binds
binding result [4]: binds
binding result [5]: binds
Binder: ARQNPGLAYGNPYS [NDP52_(368-381) peptide]
